According to patent US20200164029A1 (ACCELERON PHARMA, published 2020):

T1: hENG(26-257)-hFc (human, UniProt P17813 26-257)
T1 construct: not shown: human IgG1 Fc domain
T1 sequence: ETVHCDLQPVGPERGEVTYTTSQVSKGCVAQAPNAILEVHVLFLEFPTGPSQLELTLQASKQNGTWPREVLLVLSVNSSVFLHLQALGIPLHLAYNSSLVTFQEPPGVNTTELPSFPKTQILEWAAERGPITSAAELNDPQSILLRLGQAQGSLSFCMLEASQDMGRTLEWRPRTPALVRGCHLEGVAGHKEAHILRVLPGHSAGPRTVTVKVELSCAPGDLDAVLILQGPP

T2: hENG(129-346)-hFc (human, UniProt P17813 129-346)
T2 construct: not shown: human IgG1 Fc domain
T2 sequence: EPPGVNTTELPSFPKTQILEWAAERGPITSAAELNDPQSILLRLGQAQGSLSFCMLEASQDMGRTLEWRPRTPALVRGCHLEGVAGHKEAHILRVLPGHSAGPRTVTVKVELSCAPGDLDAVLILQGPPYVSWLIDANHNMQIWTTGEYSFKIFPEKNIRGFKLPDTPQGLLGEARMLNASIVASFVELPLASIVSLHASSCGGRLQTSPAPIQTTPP

T3: hENG(26-581)-hFc (human, UniProt P17813 26-581)
T3 construct: not shown: human IgG1 Fc domain
T3 sequence: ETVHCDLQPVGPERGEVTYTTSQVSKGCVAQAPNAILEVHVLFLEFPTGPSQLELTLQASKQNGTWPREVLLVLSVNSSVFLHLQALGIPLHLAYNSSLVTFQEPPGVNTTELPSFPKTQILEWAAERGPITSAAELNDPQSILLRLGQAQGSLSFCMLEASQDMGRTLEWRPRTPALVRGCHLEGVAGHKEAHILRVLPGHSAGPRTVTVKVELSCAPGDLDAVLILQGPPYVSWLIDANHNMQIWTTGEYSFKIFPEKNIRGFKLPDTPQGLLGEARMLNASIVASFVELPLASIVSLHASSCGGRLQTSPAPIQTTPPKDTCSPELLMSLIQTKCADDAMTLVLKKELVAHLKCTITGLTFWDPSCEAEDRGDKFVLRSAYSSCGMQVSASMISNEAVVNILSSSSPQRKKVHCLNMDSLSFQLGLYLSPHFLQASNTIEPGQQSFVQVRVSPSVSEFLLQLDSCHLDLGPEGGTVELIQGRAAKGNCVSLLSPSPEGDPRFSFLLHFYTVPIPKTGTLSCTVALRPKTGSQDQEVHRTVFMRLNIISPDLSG

T4: hENG(26-586) (R&D Systems, catalog #1097-EN) (human, UniProt P17813 26-586)
T4 construct: also called soluble human ENG extracellular domain
T4 sequence: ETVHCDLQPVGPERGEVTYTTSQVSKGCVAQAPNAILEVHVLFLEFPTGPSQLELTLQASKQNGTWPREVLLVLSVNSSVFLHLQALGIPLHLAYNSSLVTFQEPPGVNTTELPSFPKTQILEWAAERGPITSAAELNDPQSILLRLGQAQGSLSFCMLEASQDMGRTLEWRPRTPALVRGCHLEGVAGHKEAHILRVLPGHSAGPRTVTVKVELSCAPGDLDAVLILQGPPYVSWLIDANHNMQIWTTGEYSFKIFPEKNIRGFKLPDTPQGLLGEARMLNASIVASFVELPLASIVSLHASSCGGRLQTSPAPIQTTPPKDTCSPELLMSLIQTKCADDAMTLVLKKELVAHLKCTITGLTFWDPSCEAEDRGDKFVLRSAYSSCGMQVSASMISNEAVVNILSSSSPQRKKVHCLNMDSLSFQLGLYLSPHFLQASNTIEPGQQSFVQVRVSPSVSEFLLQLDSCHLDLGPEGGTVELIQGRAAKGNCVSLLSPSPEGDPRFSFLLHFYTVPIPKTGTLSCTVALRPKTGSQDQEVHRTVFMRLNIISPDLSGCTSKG


Assays:
hENG(26-257)-hFc = target: T1, hENG(26-257)-hFc; experiment: SPR, captured hENG-hFc, soluble ligand
hENG(129-346)-hFc = target: T2, hENG(129-346)-hFc; experiment: SPR, captured hENG-hFc, soluble ligand
hENG(26-581)-hFc = target: T3, hENG(26-581)-hFc; experiment: SPR, captured hENG-hFc, ligand at 100 nM; ++++ = KD < 1 nM
[1] = target: T4, hENG(26-586) (R&D Systems, catalog …); experiment: SPR competition in solution: 0-50 nM hENG(26-586) premixed with 10 nM BMP-10, binding of BMP-10 to captured ALK1-hFc read out
Source text: (§1) BMP-9 and BMP-10 are high-affinity ligands at the type I receptor ALK1 (activin receptor-like kinase 1). […] Similar results were obtained with BMP-10 (FIG. 21).

[2] = target: T4, hENG(26-586) (R&D Systems, catalog …); experiment: SPR competition in solution: 0-50 nM hENG(26-586) premixed with 10 nM BMP-9, binding of BMP-9 to captured ALK1-hFc read out
Source text: as §1

binding result (hENG(26-257)-hFc) | binding result (hENG(129-346)-hFc) | binding result (hENG(26-581)-hFc) | binding result [1] | binding result [2] | Binder
no binding (tested: 100 nM) | no binding (tested: 100 nM) | binds | binds | – | human BMP-10 (ligand, UniProt O95393 317-424, looked up, also called hBMP-10) NAKGNYCKRTPLYIDFKEIGWDSWIIAPPGYEAYECRGVCNYPLAEHLTPTKHAIIQALVHLKNSQKASKACCVPTKLEPISILYLDKGVVTYKFKYEGMAVSECGCR
no binding (tested: 100 nM) | no binding (tested: 100 nM) | binds | – | binds | human BMP-9 (ligand, UniProt Q9UK05 320-429, looked up, also called hBMP-9) SAGAGSHCQKTSLRVNFEDIGWDSWIIAPKEYEAYECKGGCFFPLADDVTPTKHAIVQTLVHLKFPTKVGKACCVPTKLSPISVLYKDDMGVPTLKYHYEGMSVAECGCR
